This assay addresses mouse CD117 (stem cell factor receptor, c-Kit) on mouse bone marrow and lung cells (mouse) (UniProt P05532). The experiment in a line: cell-based or functional assay.
UniProt P05532, sequence (P05532 25-979): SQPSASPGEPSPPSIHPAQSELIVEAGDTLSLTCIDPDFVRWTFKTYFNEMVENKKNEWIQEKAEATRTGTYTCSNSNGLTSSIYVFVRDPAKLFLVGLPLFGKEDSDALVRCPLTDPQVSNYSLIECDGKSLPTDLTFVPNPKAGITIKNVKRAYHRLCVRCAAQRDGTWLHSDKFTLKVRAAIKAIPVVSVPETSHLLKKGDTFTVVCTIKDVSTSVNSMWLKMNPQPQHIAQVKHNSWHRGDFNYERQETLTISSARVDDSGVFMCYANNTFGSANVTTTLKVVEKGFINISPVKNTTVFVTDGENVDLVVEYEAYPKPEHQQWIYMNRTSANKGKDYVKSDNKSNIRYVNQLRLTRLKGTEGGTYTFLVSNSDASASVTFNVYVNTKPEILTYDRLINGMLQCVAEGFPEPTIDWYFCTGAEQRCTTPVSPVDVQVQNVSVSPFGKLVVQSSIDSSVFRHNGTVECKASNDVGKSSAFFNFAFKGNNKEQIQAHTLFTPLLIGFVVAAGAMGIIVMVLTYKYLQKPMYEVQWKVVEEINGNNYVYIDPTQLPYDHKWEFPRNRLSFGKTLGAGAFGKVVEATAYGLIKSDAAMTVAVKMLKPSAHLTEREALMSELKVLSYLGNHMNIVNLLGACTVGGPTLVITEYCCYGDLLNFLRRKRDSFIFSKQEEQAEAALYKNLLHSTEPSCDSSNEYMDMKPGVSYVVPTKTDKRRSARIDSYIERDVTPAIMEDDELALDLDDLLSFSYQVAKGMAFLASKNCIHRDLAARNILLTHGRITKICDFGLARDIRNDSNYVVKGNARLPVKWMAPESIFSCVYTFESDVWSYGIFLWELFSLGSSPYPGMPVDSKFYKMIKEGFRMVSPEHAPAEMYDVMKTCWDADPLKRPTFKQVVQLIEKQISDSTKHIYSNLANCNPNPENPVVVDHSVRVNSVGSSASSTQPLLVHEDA

“purified rat anti-mouse CD117 (c-kit), clone 2B8 (BioLegend 93235), conjugated to LNP-mRNA (antibody)” came in with a gene editing (tdTomato) frequency in cKit+ lung cells after in vivo CD117/LNP-Cre of 90%; a luciferase activity normalized to the frequency of antigen positive cells, Lin- cells, relative to CD45/LNP of 700 fold; a luciferase activity normalized to the frequency of antigen positive cells, whole bone marrow (WBM), relative to CD45/LNP of 500 fold.

(Values after patent US20260191929A1.)
